Reference: the DeepSol protein solubility set

test: soluble on expression in E. coli; label from the status in PepcDB or PDB records

Sequence	soluble on expression in E. coli
MPGIIQIDDMNQSQALIGNNDEHLKAIEESFDVVIHARGQEVAVKGTKIENVEKAESVLINLLKVIDLGNNITIKDVEAAIKMAHNNTIQHLLDLYDEEITKDAFGKTIRAKTMGQRIYVNAMKNNDLVFGIGPAGTGKTFLAVVYAAKQLRKGAVKRIVLTRPAVEAGESLGFLPGDLKEKVDPYLRPLYDGLYTVLGREQTERFIERGIIEIAPLAYMRGRTLEDAFVILDEAQNTTHAQMKMFLTRLGFGSKMVVTGDQTQIDLPKGVKSGLKEAVSRLHNVKGISILKLDQSDVVRHPLVSKIIEHYEGEN	not soluble
MPGKNEYAVESLLTVGNGFLGLRGTTPEMTISDDHYPATYIAGLYNTAASEVAGQVVENEDFVNAPDNQHIALKIGDATDWLTISPDTLQQLHRQLNLKTGLFVAEMILKDADNQQIKLTTKKIANMAQPNDYHLQYTFEPLNFSAPITLKTVTDGSVYNYNVARYRNLTAKHFQVTALSAQENKTVIEVCTNQSNLSVRETSLITGDFFEKEAITIQEEAEKIAQVVTVMAHQGTRYTLEKQVFVQASHAEQSWQVPFTPKDSFAAAAQESARAWQTLWQQANITVTGDLMSQKLLRIHSYHLLASASPFSNQAQALDVSITARGLHGEAYRGHIFWDEIFILPFYIQHYPDTAKQLLLYRYHRLEKAKENAAASQYRGAMYPWQSGRDGRETTQKLHLNPLNGHWGEDHSILQRHVSLAIAYNAWLYWHSTQDHEFMKQYGGEMLLEIAQFWNSAATLDDATGRFFIDKVMGPDEFHEGYPDQAESGLKNNAYTNLMVVWLFEELTNILALFSEEEQAQLFAKTQTTSADLARMQQIQNSLEIEVNSDGIIAQYEGYFGLKEIDWTAMKEKYGNIYRMDRILKAEGESPDDYKVAKQADTLMLFYNLDKTRVDQILEDLGYQLPADYLEKNLLYYLKRTSHGSTLSRIVHAQLAEMAQFHELSWQLYQEALYSDYRDIQGGTTAEGIHTGVMAATIHVTLATYAGVDTRQNELSICPNLPEHWQALAFQFIHQGVTYQFSLTQTSVTITADRDTQLLVQGALIPLTAERPKEVHYQ	not soluble
MPGRFELKPTLAKIWHAPDNFRIMEPLPPMHRRGIIIAAIVLVIGFLLPASETSDSPVVTREAQLDLQSQSQPPTEAQLQAQLVAPQNDPDQVAPVAPEPIQEGQPEEQNQPQTQPFQQDSGIGQQWRSYRVESGKTLAQLFRDHGLPPTDVYAMAQVEGAGKPLSNLKNGQMIKIRQNASGVVTGLTIDGDNGQQVLFTRQPDGSFIRAQ	not soluble
MPGTEKTQHISLTTQVENRLKHQLSIGALKPGARLITKNIAQELGVSITPVREALLRLVSSSALAVAPAQAFMVPEISLESLLEINTIRTALEEMAVVAAAGKITPDREQTLNALLDEFQQALESGVMEKILLANRAFRFEIYHYADMPTLYAMIEQLWVRLGPSLHFLYDNFKLDDYQNGVNLYRKLLNALVTGDKEASRHCLQNVLQQNVATIKNQYFM	not soluble
MPGTKRFQHVIETPEPGKWELSGYEAAVPITEKSNPLTQDLDKADAENIVRLLGQCDAEIFQEEGQALSTYQRLYSESILTTMVQVAGKVQEVLKEPDGGLVVLSGGGTSGRMAFLMSVSFNQLMKGLGQKPLYTYLIAGGDRSVVASREGTEDSALHGIEELKKVAAGKKRVIVIGISVGLSAPFVAGQMDCCMNNTAVFLPVLVGFNPVSMARNDPIEDWSSTFRQVAERMQKMQEKQKAFVLNPAIGPEGLSGSSRMKGGSATKILLETLLLAAHKTVDQGIAASQRCLLEILRTFERAHQVTYSQSPKIATLMKSVSTSLEKKGHVYLVGWQTLGIIAIMDGVECIHTFGADFRDVRGFLIGDHSDMFNQKAELTNQGPQFTFSQEDFLTSILPSLTEIDTVVFIFTLDDNLTEVQTIVEQVKEKTNHIQALAHSTVGQTLPIPLKKLFPSIISITWPLLFFEYEGNFIQKFQRELSTKWVLNTVSTGAHVLLGKILQNHMLDLRISNSKLFWRALAMLQRFSGQSKARCIESLLRAIHFPQPLSDDIRAAPISCHVQVAHEKEQVIPIALLSLLFRCSITEAQAHLAAAPSVCEAVRSALAGPGQKRTADPLEILEPDVQ	soluble
MPGTLSFPSDAFPAYPALEIDQPDGWVALAGVGLPLALAAEVPSGQFRPNVLVTVQRFGVGHTVADSRSAVNKSLKALPRFTQTLREDSIEMLGSPGMRVEGYFSDGKGGTMVQALRMCVVEAGPVFDVVQITGTCSGPQTEAFFGQIREIQDTLRLAG	not soluble
MPGTTDQIDVNVEVKEKPTGAVMFGAGYSNMEGLILSGSVAQDNIFGTGKFVNLMVNTGSVNKTYSLSYTDPYFTKDGVTAGLDLYKRVLNTRTLSSVMNFNTDTLGAGLRFGIPINENDSIMGGLGAEQTTIDLGPDSPQRNIDFVNKFGRTTINIPATLSWRRDGRDSAIWTTSGTTQRVFAEVGLPGGDLTYYKLSYDLRWYFPITEIFTLMLNGELGYGDGYSGKELPFFKNFFAGGNTSVRGYNISSLGPRDATNRTLGGNKRAVGNIEVLFPMPGMRNDRTVRLSAFLDGGTVWGPGGVRPDQEGLRYSAGIAVTWISPMGPLKISVAQPLNSQPGDNIQRFQFQFGQQFLEHHHHHH	soluble
MPIHHAIVHLIEKKPDGTPAVLHARDAELGDSQAIENLLADLNESYNAKNKAWGFFQGESGAYPFSGWLGEYLEGDRDFVGFSREAVEHLQKLMEESNLSTGGHILFAHYQQGMTDYLAIALLHHSEGVAVNESLEVTPSRHLDLGQLHLAARINISEWRNNKQSKQYISFIKGKGGKKVSDYFRDFIGCQEGVDSPSETRTLLKAFSDFVESEDMAEEQAREKTETLVDYATSQARIGEPMTLDALSELMDDQQPRAFYDYIRNKDYGLSPEIPADKRTLNQFRRFTGRAEGLSISFEAHLLGSKVEYDEERDMLIIRQLPTQLKDQLKRRKDLEHHHHHH	not soluble
MPITKFIWSPSGTGLSEHAWATSESTGAAWVGNDAAAHISLLRSTVAEELAVPLEQAGMDAATMQRAVDTAIDTWGLRGQAEQDPMTLSSGQTRRLAIAGALITRPEALVLDCPTDGLDTEAIEILHRIVDSFPGNVTVYDRMHTALATTAAEQLRLTSSGDLVPEPAPDPVDTVSARFTPIDLSTDHGPLLCAKNLRIPRGATTVGPISCEVSPSSVTHLAGLNGTGKTSFFLAALGLVASTGTLQVADGVTMGWAPADMDSALSRRTVATELTVGATPELAQAAIEFMGLEQWADTHPLDVPAAWRRFVLIAAALVRGPHLLLLDEPTVNLDAPNHGHLSLLMHRYCAGEFHRMAGLDLGGHHPAVLFTCHDARYAQAVSTAEIRI	not soluble
MPITNERKETIRVAKKLNKFIALPSMLNWKVHESDVLRRGRVLCMIRSKNFFFPDDISSLKMRMATVTKHGYLVLYESVDEGLVIDLRSATHILTECDKYKSERIKYSRSHVKVRLPRGNVHMFLRDDDISKWTAALLEAHVSFRPTAAARVVAKPRQQPSKNVETMTAIEPVEVMDSPTSPVTSSNSGLITVLERGVSSEDTLIPSVRRGVIPVNTLRYQIEKHLEMCTPASEQLSKSSDPNISSMYVFHQGIQVKQEPIDDDQEEEQQVQKQLVFKIEGSEDEEAVKKEWWLRSLRC	not soluble
MPKIDLIIFDCDGVLVDSEYLAAQIGSQLLKKIGYEISPEELSARYAGLIFPDILKKVEQETGKPTSAHLIDQMSDLFRAQIKTELRAIDGIKEAIEAIQSHYPYCICSNARSTEIKEMLTIVDLYDFFDNKDKIFSAPEVGTKKTKPAPDVFLFAAQQLRVKPKNTIVIEDSIHGVHAATAAGMRVIGFTGGSHSYLGHSNALVEAGAETAIAKHAHLLEVLEAMAVWQDLP	not soluble
MPKKAGATSKGKNQTKEPETAPPAAGPVATDPKGFVTIAIHAKPGSRQNAVTDLSTEAVGVAIAAPPSEGEANAELCRYLSKVLDLRKSDVVLDKGGKSREKVVKLLASTTPEEVLEKLKTEAEKK	soluble
MPKKRENRGRRKGDKGHVGYISCDQCGARVPEDKAVCVTKMYSPVDASLASELEKKGAIIARYPVTKCYCVNCAVFLGIIKIRAENERKQKARLRLEHHHHHH	not soluble
MPKSLSLQDVQLRFSSKFPDKTVLKFTKNYEPVTIQCPLHGSVVYGNLQAAMKSSTGCPECTRNPEKPSPNAVAIRLEDTETGEIYEFASTLAASKFIGCSNSTLAVRLSGRTPFDRLIRYRYRLVK	not soluble
MPKVISQKEFNILSRTKERVNFQIVYTKQRNGLHKAAKEYFFKDKDFTIIEDTPDTPDQPDGPCITKGPKEPGGPEEPNGPDKPEDPKDPDTPDVSEGPKEQGGQKDPGGPDDPSEGKQKVSKPDKYVTHRELDEKLKDFATKADFKRVEDKVDVLFELQKTQGEQIKVQGEQIKAQGKQIEQLTETVKVQGEQIRAQGEQIKAQSEEIKEIKVEQKAQGEQIKELQVEQKAQGKTLQLILKTLEKMNERLEKLESK	soluble
MPKVNLYATFRDLTGKSQLELPGATVGEVLENLVRAYPALKEELFEGEGLAERVSVFLEGRDVRYLQGLSTPLSPGATLDLFPPVAGGGFERTFGAFPPWLLERYLEEWGGTREGEGVYRLPGAVVRFREVEPLKVGSLSIPQLRVEVEGEEAERWFERIAFAASRGGG	soluble
MPLENVMTDLKASSLRALKLMDLTTLNDDDTNEKVIALCHQAKTPVGNTAAICIYPRFIPIARKTLKEQGTPDIRIATVTNFPHGNDDIDIALAETRAAIAYGADEVDVVFPYRALIAGNEQVGFDLVKACKDACAAANVLLKVIIETGELKEEALIRKASEISIKAGADFIKTSTGKVPVNATPESARIMMEVIRDMGVSKTVGFKPAGGVRTAEDAQKFLAIADELFGADWADSRHYRFGASSLLASLLKALGHGDGKSASSY	not soluble
MPLSAQQLAAQKNLSYVLAEKLAQRILKGDYAPGTILPGEIELGEQYGVSRTAVREAVKTLTAKGMVLPRPRIGTRVMPQGNWNFLDQELLTWWMTEENFHQVVEHFLVMRISLEPQACLLAATLGTPEQKARLNALMEEMVALKKHFKRERWIEVDMAWHEHIYEMSANPFLISFATLFHSVYHTYFTSITYNEVVKLDLHQAIVDAIADGDGERAFQACQALLIAPNERPDN	not soluble
MPLYVIDKPITLHILTQLRDKYTDQINFRKNLVRLGRILGYEISNTLDYEIVEVETPLGVKTKGVDITDLNNIVIINILRAAVPLVEGLLKAFPKARQGVIGASRVEVDGKEVPKDMDVYIYYKKIPDIRAKVDNVIIADPMIATASTMLKVLEEVVKANPKRIYIVSIISSEYGVNKILSKYPFIYLFTVAIDPELNNKGYILPGLGDAGDRAFG	soluble
MPMVLVVLDHDGNRLKKGSLEALTRARDLAQALGGKVAGVLLAEEKAPVEEARKYVEVLYTATLGPYTAEKWAAGVLKAAEASGAKAVVAPSSRQSRAYLGRVAYALRAGLLEDTLESRVEGGEVHATRYAYLNRVTQRVKAALPVVLTVKPNTTPLAEPLPGEAEAVALSVPEVPTVEVLERLQEEKKGVSLTEADVVVTGGRGMGSPEAFKLVEELAALLGGAVGATRAVVDAGWRPYAEQVGQTGKTVQPSLYIALGVSGAVQHLAGMNKSKYIVAVNKDPEAPIFKHADYGIVGDVHQVLPALIEAVKKLKD	soluble
MPNHLAGETSPYLLQHAENPVDWYPWGEEALEIARMLDKPILLSIGYSACHWCHVMAHESFEDAQVATAMNEHFVNIKVDREERPDIDQIYQSAHYTLNHRSGGWPLTMFLTPEQKPFFGGTYFPKEARYSMPGFLELLPKVAELYRTRKTDIEKQNA	not soluble
MPNNISKSAIIKEGVIIGENVTIEDNVYIDYGCIIRDNVHIKKGSFIGARSILGEYLVDFYNDRINKKHPLIIGENALIRTENVIYGDTIIGDNFQTGHKVTIRENTKIGNNVKIGTLSDIQHHVYIGNYVNIHSNVFVGEKSIIKDFVWLFPHVVLTNDPTPPSNELLGVTIELFAVIAARSVVLPGIHINEDALVGAGAVVTKDVPKETVVVGNPAREICSIRKIKNKITGEQVYPWRYTFKRGMPWEETDYDTWIKNISIENLEHHHHHH	soluble
